Data on 15 variants can be found in the RNAGym collection of RNA variant scans (doi:10.1093/molbev/msab373).

Sequences and labels used below:
B1: Azoarcus group I ribozyme (parent)
chain: GUGCCUUGCGCCGGGAAACCACGCAAGGGAUGGUGUCAAAUUCGGCGAAACCUAAGCGCCCGCCCGGGCGUAUGGCAACGCCGAGCCAAGCUUCGGCGCCUGCGCCGAUGAAGGUGUAGAGACUAGACGGCACCCACCUAAGGCAAACGCUAUGGUGAAGGCAUAGUCCAGGGAGUGGCGAAAGUCACACAAACCGG

Variants of B1 are the subject of the data set. The data set can be described thus: reverse-splicing fitness (ratio to wild type); higher = more active; in vitro selection; Mg2+ level not given. The procedure, abridged:
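An in vitro group I ribozyme library with randomized positions was T7-transcribed and gel-purified. In triplicate, 10 pmol RNA in EPPS pH 7.5 was reacted with 50 pmoles of a 30-nt RNA substrate for 1 h at 37 °C across several added MgCl2 levels (1–48 mM), then stopped with EDTA. Products were reverse transcribed from a substrate-complementary primer, PCR-amplified and sequenced (HiSeq 4000). Fitness is a variant's read proportion after selection over that before, normalised to wild type.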
Turning to GUGCCUUGCGCCGGGAAACCACGCAAGGGAUGGUGUCAAAUUCGGCGAAACCUAAGCGCCCGCCCGGGCGUAUGGCAACGCGGAGCCAAGCUUCGGCGCCUGCGCCGAUGCAGGUGUAGCGACUAGACGGCACCCACCUAAGGCAAACGAUAUGGUGAAGGCAUAGUCGAGGGAGGGGCGAAAGUCACACAAACCGG [C82G A111C A120C C150A C169G U176G], the reverse-splicing fitness was 0.00766.

In the case of GUGCCUUGCGCCGGGAAACCACGCAAGGGAUGGUGUCAAAUUCGGCGAAACCUAAGCGCCCGCCCGGGCGUAUGGCAACGCUGAGCCAAGCUUCGGCGCCUGCGCCGAUGGAGGUGUAGGGACUAGACGGCACCCACCUAAGGCUAACGGUAUGGUGAAGGCAUAGUCAAGGGAGAGGCGAAAGUCACACAAACCGG [C82U A111G A120G A145U C150G C169A U176A], the reverse-splicing fitness is 0.00905.

Take GUGCCUUGCGCCGGGAAACCACGCAAGGGAUGGUGUCAAAUUCGGCGAAACCUAAGCGCCCGCCCGGGCGUAUGGCAACGCUGAGCCAAGCUUCGGCGCCUGCGCCGAUGAAGGUGUAGGGACUAGACGGCACCCACCUAAGGCCAACGAUAUGGUGAAGGCAUAGUCAAGGGAGCGGCGAAAGUCACACAAACCGG [C82U A120G A145C C150A C169A U176C]: the reverse-splicing fitness is 0.0049.

With GUGCCUUGCGCCGGGAAACCACGCAAGGGAUGGUGUCAAAUUCGGCGAAACCUAAGCGCCCGCCCGGGCGUAUGGCAACGCAGAGCCAAGCUUCGGCGCCUGCGCCGAUGUAGGUGUAGCGACUAGACGGCACCCACCUAAGGCCAACGAUAUGGUGAAGGCAUAGUCCAGGGAGCGGCGAAAGUCACACAAACCGG [C82A A111U A120C A145C C150A U176C], the reverse-splicing fitness came to 0.0167.

As for GUGCCUUGCGCCGGGAAACCACGCAAGGGAUGGUGUCAAAUUCGGCGAAACCUAAGCGCCCGCCCGGGCGUAUGGCAACGCUGAGCCAAGCUUCGGCGCCUGCGCCGAUGUAGGUGUAGGGACUAGACGGCACCCACCUAAGGCCAACGAUAUGGUGAAGGCAUAGUCUAGGGAGUGGCGAAAGUCACACAAACCGG [C82U A111U A120G A145C C150A C169U], the reverse-splicing fitness came to 0.00623.

On to GUGCCUUGCGCCGGGAAACCACGCAAGGGAUGGUGUCAAAUUCGGCGAAACCUAAGCGCCCGCCCGGGCGUAUGGCAACGCCGAGCCAAGCUUCGGCGCCUGCGCCGAUGAAGGUGUAGAGACUAGACGGCACCCACCUAAGGCCAACGUUAUGGUGAAGGCAUAGUCAAGGGAGAGGCGAAAGUCACACAAACCGG [A145C C150U C169A U176A], for which the reverse-splicing fitness was determined as 0.0158.

Regarding GUGCCUUGCGCCGGGAAACCACGCAAGGGAUGGUGUCAAAUUCGGCGAAACCUAAGCGCCCGCCCGGGCGUAUGGCAACGCUGAGCCAAGCUUCGGCGCCUGCGCCGAUGUAGGUGUAGCGACUAGACGGCACCCACCUAAGGCGAACGAUAUGGUGAAGGCAUAGUCAAGGGAGAGGCGAAAGUCACACAAACCGG [C82U A111U A120C A145G C150A C169A U176A], the reverse-splicing fitness turned out to be 0.0207.

As for GUGCCUUGCGCCGGGAAACCACGCAAGGGAUGGUGUCAAAUUCGGCGAAACCUAAGCGCCCGCCCGGGCGUAUGGCAACGCCGAGCCAAGCUUCGGCGCCUGCGCCGAUGUAGGUGUAGAGACUAGACGGCACCCACCUAAGGCCAACGCUAUGGUGAAGGCAUAGUCUAGGGAGAGGCGAAAGUCACACAAACCGG [A111U A145C C169U U176A], the reverse-splicing fitness was 0.0252.

Regarding GUGCCUUGCGCCGGGAAACCACGCAAGGGAUGGUGUCAAAUUCGGCGAAACCUAAGCGCCCGCCCGGGCGUAUGGCAACGCGGAGCCAAGCUUCGGCGCCUGCGCCGAUGCAGGUGUAGCGACUAGACGGCACCCACCUAAGGCAAACGAUAUGGUGAAGGCAUAGUCCAGGGAGCGGCGAAAGUCACACAAACCGG [C82G A111C A120C C150A U176C], the reverse-splicing fitness was 0.0203.

Regarding GUGCCUUGCGCCGGGAAACCACGCAAGGGAUGGUGUCAAAUUCGGCGAAACCUAAGCGCCCGCCCGGGCGUAUGGCAACGCUGAGCCAAGCUUCGGCGCCUGCGCCGAUGUAGGUGUAGCGACUAGACGGCACCCACCUAAGGCUAACGUUAUGGUGAAGGCAUAGUCUAGGGAGGGGCGAAAGUCACACAAACCGG [C82U A111U A120C A145U C150U C169U U176G], the reverse-splicing fitness was 0.00516.

As for GUGCCUUGCGCCGGGAAACCACGCAAGGGAUGGUGUCAAAUUCGGCGAAACCUAAGCGCCCGCCCGGGCGUAUGGCAACGCGGAGCCAAGCUUCGGCGCCUGCGCCGAUGCAGGUGUAGCGACUAGACGGCACCCACCUAAGGCAAACGUUAUGGUGAAGGCAUAGUCUAGGGAGCGGCGAAAGUCACACAAACCGG [C82G A111C A120C C150U C169U U176C], the reverse-splicing fitness worked out at 0.0142.

On to GUGCCUUGCGCCGGGAAACCACGCAAGGGAUGGUGUCAAAUUCGGCGAAACCUAAGCGCCCGCCCGGGCGUAUGGCAACGCUGAGCCAAGCUUCGGCGCCUGCGCCGAUGGAGGUGUAGCGACUAGACGGCACCCACCUAAGGCAAACGUUAUGGUGAAGGCAUAGUCAAGGGAGGGGCGAAAGUCACACAAACCGG [C82U A111G A120C C150U C169A U176G], for which the reverse-splicing fitness was found to be 0.00397.

Regarding GUGCCUUGCGCCGGGAAACCACGCAAGGGAUGGUGUCAAAUUCGGCGAAACCUAAGCGCCCGCCCGGGCGUAUGGCAACGCGGAGCCAAGCUUCGGCGCCUGCGCCGAUGCAGGUGUAGGGACUAGACGGCACCCACCUAAGGCUAACGUUAUGGUGAAGGCAUAGUCCAGGGAGAGGCGAAAGUCACACAAACCGG [C82G A111C A120G A145U C150U U176A], the reverse-splicing fitness amounted to 0.0115.

GUGCCUUGCGCCGGGAAACCACGCAAGGGAUGGUGUCAAAUUCGGCGAAACCUAAGCGCCCGCCCGGGCGUAUGGCAACGCCGAGCCAAGCUUCGGCGCCUGCGCCGAUGGAGGUGUAGGGACUAGACGGCACCCACCUAAGGCAAACGUUAUGGUGAAGGCAUAGUCAAGGGAGAGGCGAAAGUCACACAAACCGG [A111G A120G C150U C169A U176A]: the reverse-splicing fitness turned out to be 0.0291.

Consider GUGCCUUGCGCCGGGAAACCACGCAAGGGAUGGUGUCAAAUUCGGCGAAACCUAAGCGCCCGCCCGGGCGUAUGGCAACGCUGAGCCAAGCUUCGGCGCCUGCGCCGAUGUAGGUGUAGUGACUAGACGGCACCCACCUAAGGCAAACGAUAUGGUGAAGGCAUAGUCUAGGGAGUGGCGAAAGUCACACAAACCGG [C82U A111U A120U C150A C169U], for which the reverse-splicing fitness amounted to 0.00428.
